{"source": "the DeepSol protein solubility set"}
{"experiment": "soluble on expression in E. coli; label from the status in PepcDB or PDB records"}
{"sequence": "MGSDKIHHHHHHMDGSSQEGEKKKKVYEVKTFPISFALGENQENITITTQTPSKPSKEKKFHKARMLHKQGKIAEAKKYYQQLINEGFNDHRVFSNYGVILAQLGKLKEAEISTRKAIEMQPNYAEAHSNLGIILNDLGKLEEAEICQRKAIKIKPNLTGAAWNLYGLANTIKEAEERVNQVLKIDENHVEAQLHLSALKLHQGDQSLFDNLTKSTHKDHAITRSIKWVANLPKLPELFFYRWALFDSMTKKSKKDRPFYEFGVWRGASFRYLINTFKKGYGFDTFEGLPEDWHHEAQGTYSAEGIIPNIEGGEFIAGKFEDTLPTFYSKPRPMASIINFDADLYSSTLCALNCSKPVIDKDTILIFDEFIISENWEQDEYKALNEFCSKNNLTYEVLAVSYFEKQVAVKLIGV", "soluble on expression in E. coli": "not soluble"}
{"sequence": "MSYYHHHHHHLESTSLYKKAGLENLYFQGVRQYKIHTNLDGTDDKVWDVTNGKVRFYQPSNLGLQSTNNIWQSNGIGVMGTRSITQPQIEFKLETFGESLEENYQLMKDFVNDILSKKFVTLEYQTEIFQVYADLALADVTKTEGYGKNGTFSEKITFDIITKWYTYENLTFDKIQNGKVIAGMSKIYGGTAPGNYKYIKGTSYTYYGESDIDRLSRWDIKEEIFSFMGILYPKLPKTPAGVRFLDDIGNEYTAIVFKTEQVQDYILINTDVNDETYQGWKGTTALNLFPVMDFERYRTRIIEKGQMELINLSKAEFKIKRKADFV", "soluble on expression in E. coli": "soluble"}
{"sequence": "MSLSSPRIIATYHLASDADLVAERAKGLAIEQSVECPLAAVGDPVILDTIVGRVEDIAELTPGRYAVRIGLAAATAPAEPGQLINMLFGNSSMQQDVTLVDVELPPSYLAAFGGPRLGLAGLRALTGTQDRALTASALKPQGLSPAALARIAGQLARGGVDVIKDDHGIADQAYSPFAARVEAVGRAVQEANVARDGHSLYAPNLSGTLDDMRRQLDLAREQGIAAVMVAPMIVGLANFHAVVKAAAGMVVIAHPALSGVTRIAPPLLLGKLFRLFGADATIFPNAGGRFGFSTETCLQLARAGRDPWGALEPCMPVPAGGLTADRVAELLQFYGHDVMLLIGGGLLSARERLTEEAARFVNEVAAHGKAEGHHHHHH", "soluble on expression in E. coli": "soluble"}
{"sequence": "MPNNEASEEAKWYVVHTYSGYENKVKANLEKIVENRNLQDYILDIVVPMEEQIEIKDGKKKASLKKVFPGYVLVKMIMNDESWYVVRNTRGVTGFVGPGSKAVPLTDEEIRAMGVEEFAPVLDYEVGDNVRVVSGPLENFIGIVEEINLEKKKVRVSVSMFGRETPVELELHQIQKI", "soluble on expression in E. coli": "soluble"}
{"sequence": "GELDPVVTWGTTPGQGIGIDDPIPEPEDLADDKVDTARRAQKHMRVEPGETMEGYDIDVAFLGSCTNARLPDLRRAARIVKGREVADDVRAFVVPGSQRVQRAAEEEGLKDIFEEAGFEWRNAGCSMCLGMNEDQLEGDEACASSSNRNFVGRQGSKDGRTVLMNPRMVAAAAITGEVSDVRDLKEVTLA", "soluble on expression in E. coli": "not soluble"}
{"sequence": "MGLYLKGPSYKQVARILGMSHYRMKMLAMKKREVDDTVTKINGERRYLWAAIDVESREILAILEHHHHHH", "soluble on expression in E. coli": "not soluble"}
{"sequence": "MGHHHHHHHHHHSSGHIEGRHMYTVMLDLKGRSVLVVGGGTIATRRIKGFLQEGAAITVVAPTVSAEINEWEAKGQLRVKRKKVGEEDLLNVFFIVVATNDQAVNKFVKQHIKNDQLVNMASSFSDGNIQIPAQFSRGRLSLAISTDGASPLLTKRIKEDLSSNYDESYTQYTQFLYECRVLIHRLNVSKSRKHELLTEIIDDQYRLSLVKQREFLQQIEKYK", "soluble on expression in E. coli": "soluble"}
{"sequence": "MNINRNKIVQLADTDTIENLTSALSQRLIADQLRLTTAESCTGGKLASALCAAEDTPKFYGAGFVTFTDQAKMKILSVSQQSLERYSAVSEKVAAEMATGAIERADADVSIAITGYGGPEGGEDGTPAGTVWFAWHIKGQNYTAVMHFAGDCETVLALAVRFALAQLLQLLL", "soluble on expression in E. coli": "not soluble"}
{"sequence": "SSALPRTLGELQLYRVLQRANLLSYYETFIQQGGDDVQQLCEAGEEEFLEIMALVGMATKPLHVRRLQKALREWATNPGLFSQPVPAVPVSSIPLFKISETAG", "soluble on expression in E. coli": "soluble"}
{"sequence": "MGSDKIHHHHHHACDDDEATDPYDINYVYIYKPSETNATLEYKGDGTFLKEIATEHILSPVRCTKPAPQDLTIQLAIDRSLVDAYNSEYGTSYVALQNAELENATLYIKQGEYISVDTLKVHYTNMEEFKNGSENYILPIAITSINGTGVSASESNSKIFLTFESTYKPNHVTLTSSKEYLLEYQYSQGFTNLSSEWKLDGILKSAWAADGDTKVTLAINPALVGTYNALHGTDYSLLTSASLKQSTIMIKQGKTTPEESVALSFSDDMASVQLGTNYVIPVTITNVDGVGADIGENKVIYIVYKTALVGFLSCVDKPVGSVINDHSGWSFTLNGQSSDLYDYVPDGSILDIDLGKQENIKTIALHFYEWFYSSESASIAISNDGEKYEDLGVASGFANKTSYILLLVAKQAQYIRVTFHGALYYSPYINTVGIYTETE", "soluble on expression in E. coli": "not soluble"}
{"sequence": "MTSYEEETDYRNVPRELLDNNIPMGRGMIKWAPFATLPEQFETIQQYIIDQNKITRPVLSDDQLAELNIRLHEALQYAQPVEVKFYNNGFVDSVRLTIYRIDAINYEIDGYVYNQQQRQKISIFDILDIVLLPLEHHHHHH", "soluble on expression in E. coli": "soluble"}
{"sequence": "MEDPLGRLEWIKFLSAFYDKEDKAENYFNQQVSKVMATENKVSSLKKPKVAFGMVDNGKVYIPAKNSYAAKMVDMAGGDYIFKDLNNKSGYITLEDFYSKSKDADVLIYSSSKEYTPSLKSMLSAAPILKTIKPVKNKKVWCFGKDYYQAIDKTDEIIEDLASIFHPESFKGLEHHHHHH", "soluble on expression in E. coli": "not soluble"}
{"sequence": "MYQEFFTFIPVDIEELDKAFGGGLIRGATISIMYDAFSLGWALGFEMVKNLIRRNSFGVIHNYNLPTIKLISRASFVGLNIQELAKRKEIMILDVFGSKYDVPPYADYVLQVPNPTPETLNPKIESVYENKIFQVAGDRRIVKLVYTLDGVATMFGEEVAIKLLNGELAWLAKMYGKRNVMTILLLNVDMVSKKFIAWTSGVSDIVITFQSLTEEREGELVERMTVIKSLNPEFEPTSYEFRVTATGTGSHALDFRKIENKRDK", "soluble on expression in E. coli": "soluble"}
{"sequence": "MSLNSMELLIIKERRIDYDGSAIRSHWAYRNFGILGDSLVVFRGKCNVKVEEMVDIEDLRLRKEIKGDDMVHYILELFWHPDILLASSLQKLLIARLVELLWNYGIEASRRGDDIYVNGRKLSISIATVSPVSIKIHIGLNVKTVGVPPGVDAIGLEELGIDPTEFMERSAKALVEEIEKVRKDSLKVRWVTEGHHHHHH", "soluble on expression in E. coli": "soluble"}
{"sequence": "MGSDKIHHHHHHMEIGIAASVSELDGVQWDALSDGSPLLSHAFLSALEHSGSVGEGTGWQPMPLTVRRDGKLIGAVPLYLKHHSYGEYVFDWSWAGAYTQHGGEYYPKLVAAVPFTPITGSRLLSHDPMLQAHMAEVLRDTVQRLQLSSAHVLFPDEQSAEVLSGQGWLRRQGVQFRWHNQGFASFDEFLMTLTHDKRKKIRQERRKVDAAGVICRRLLGAEIGEREWDFFYKCYVNTYLEHRSSPYLTQAFFHELGERLPGNVMLVLAERDGRRIGAALNLYDTDCLYGRYWGALAYVPNLHFELCYYQAQLFCIERGIRFFEGGAQGEHKLARGFVARETCSFHHIAHPDFEAAIRHFVSREAVGVSHYQQELDERAPYRKPG", "soluble on expression in E. coli": "not soluble"}
{"sequence": "MAHHHHHHMALVQSHYGSDAIHTRLNDDPPSSEEIERRRGAGCLPYSNRLVHRLVVLPVTPPSIYEGETTQSPVETQGTHNERRANERDRQRRARYASLLRSHYVPLVPFSTFTEPQERSFKLPTISKYPAARRQPQFAQSEEDYMMCGGFYPGPDQYDHRGGPRLGVMQQHTVQLERVHSRHVAPPPSRLINAPGNEDMLFPI", "soluble on expression in E. coli": "not soluble"}
{"sequence": "MDLVDKRDVLIGDFRPSLGFYGGVRVGVYLDTTEPKHAKIKGFAMETLKRSSKVWLQELRSNLNIFWGTIESEISKNGAASYIFPLQRCIFSFLCASLAGVDASVSPDIAENGWKTINTWLALQVIPTAKLGVVPQPLEEILLHTWPYPSLLIAGNYKKLYNFIDENAGDCLRLGQEEFGLTRDEAIQNLLFVLGFNAYGGFSVFLPSLIGRITGDNSGLQERIRTEVRRVCGSGSDLNFKTVNEMELVKSVVYETLRFSPPVPLQFARARKDFQISSHDAVFEVKKGELLCGYQPLVMRDANVFDEPEEFKPDRYVGETGSELLNYLYWSNGPQTGTPSASNKQCAAKDIVTLTASLLVADLFLRYDTITGDSGSIKAVVKAK", "soluble on expression in E. coli": "soluble"}
{"sequence": "GEITSAYFVCREATLQKLAAMQSIDSEQKLSALFEGSSQIISLFDRDSRFVWYNKAAYDKSIFLFGKFLCVGERFDSYLKEQYREGFNANFERVLKGEIVSYTREYTYQDKPFFLEIMLQPVYQKDELVGVSLIGNN", "soluble on expression in E. coli": "not soluble"}
{"sequence": "MGSDKIHHHHHHMTQNVIEMKEITKKFGDFVANDHINLTVEKGEIHALLGENGAGKSTLMNMLAGLLEPTDGQIFINGQPVTIDSPSKSSQLGIGMVHQHFMLVEAFTVAENIVLGNETTQNGVLDIKTAAKEIKELSEKYGLSVNPNAKISDISVGAQQRVEILKTLYRGADILIFDEPTAVLTPSEIKELMTIMKSLVKEGKSIILITHKLDEIRAVADKVTVIRRGKSIETVPVAGASSQQLAEMMVGRSVSFRTEKKEANPTDIILSVKDLVVEENRGGVLAVKNLSLDVRAGEIVGIAGIDGNGQSELIQAITGLRKVTSGQIVIKGKDVTKFSSRQITELSVGHVPEDRHRDGLVLDMTMAENLALQTYYKEPLSHKGILNFAKIKEYARQLMTEFDVRGAGEHVLARGFSGGNQQKAIIAREVDRDPDLLIVSQPTRGLDVGAIEYIHKRLIEERDKGKAVLVVSFELDEILNLSDRIAVIHDGKIQGIVKPDQTNKQELGILMAGGKIEKEERDV", "soluble on expression in E. coli": "not soluble"}
{"sequence": "MGSDKIHHHHHHMSIAIRRDEEIALSCHGVSKSFVISGEQNIWRMFCALPVRGEVFAALRDVSLEVPRGKIVGILGRNGAGKSTLLRVLGGVYQPTSGTVDVHGQVCGLFEMGGFGNRELSGREYATRYLTVMGAPRKDRGDLLADIAEFSELGADFDRKILTYSAGMAARLYFSTATAMRHEIYLIDELLSVGDEHFQAKCWIRMRNLLLNGASGILVTHDWVSTLKLCQQSHILERGSIVASGRTDAAVVKYLDLPVPDGALARFCDSDRATWHAVAGEDAVFEFDIESEEDIPLVFTYSVELMRIGIGWDIMLLGQRPIGSGNGRRRVQLKVPALPLAPGEYSLTVGLIKEKTRAEDEAVICDARGWTTGNGYVLEVSGTLEQGTTILPMEISGWIDD", "soluble on expression in E. coli": "not soluble"}
{"sequence": "RKEDHARLRALNGLLYKALTDLLCTPEVSQELYDLNVELSKVSLTPDFSACRAYWKTTLSAEQNAHMEAVLQRSAAHMRHLLMSQQTLRNVPPIVFVQDKGNAALAELDQLLAVAD", "soluble on expression in E. coli": "soluble"}
{"sequence": "MPTALIADDEPNLSAELAERLAELWPELEIVAMPRNGVDTLAALNAARPDIAFLDIRMPGIDGLKLASLVPDVHVVFVTAYDEYAVEAFDRSAIDYLLKPVTDERLLRCIAKLQRGGFAPPGAQALSDARMPKEPTLIRWLTVGLKDTTRLVSVDDVLYFQALDKYTEVVTAGERHVIRTPLKELLQRLDQDRFAQVHRGVIVAYAAIDRIERDLLGRLCIHLHGHRDVLPVSRAYAGLFKHM", "soluble on expression in E. coli": "not soluble"}
{"sequence": "MGHNDELIRNKSAFASEMSDAAAIVQYADKNSLVVLDELARSTSTEEGIAITYAICEKVLKLHSYTFLATHFLDIAALANYSNAIDNYHFLPQIDDNSTKKHKLLRG", "soluble on expression in E. coli": "not soluble"}
{"sequence": "MPSAAPSSSVLLVQISDSHLFAEADGALLGMSTRDSLEKVVDLVLAEQPQVDLVVASGDISQDGSVESYEAFRRISTQIAAPARWFAGNHDELPQMEHVAQAEGLLEPIINIGRWRVTLLDSAVPGSVPGFLAAGQLQLLEQSLSEAPDRHHLVCLHHHPVAIGCEWMTPIGLRNADALFAVLDRFPQVRAVLWGHVHQEFDQMRNGVRLLASPSTCIQFAPGSADFKVDTTAPGYRWLRLHDDGRLETAVSRVVGMQFEVDYGGTGY", "soluble on expression in E. coli": "not soluble"}
